The values below come from patent US20120316071A1 (published 2012).

The target of assay [1] is T1, Recombinant Human DLL4 (R&D Systems Cat#1506-D4/CF) (human, UniProt Q9NR61 27-524).
T1 construct: Bought recombinant protein; also called delta-like protein 4; rHuman DLL4
Description: ECL multispot (MSD) binding assay; DLL4 signal over blank spot.

Assay [2] concerns the target T1, Recombinant Human DLL4 (R&D Systems …). Description: ECL multispot (MSD) binding assay; DLL4 spotted on the plate, purified Fab added.
Assay [3] has as its target T2, rHuman Notch-1/Fc Chimera (human, UniProt P46531 19-526).
T2 construct: Bought from R&D Systems (Cat#3647-TK)
Description: ECL multispot (MSD) binding assay; antigen spotted on plate, Fab in solution.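 Further: purified Fab bound for 1 h at 20 °C, detected with a TAG-labelled antibody, electrochemiluminescence compared with each well's blank, signal-to-blank ratio of at least 4 scored as hit.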

Assay [4] deals with rHuman IGF-1 sR (insulin-like growth factor-1 soluble receptor) (human, UniProt P08069 31-932). Described as above.
Another assay has as its target rHuman CD44/Fc Chimera (human, UniProt P16070 21-220). The assay is described as above.
In assay [5] the target is T3, rHuman Erythropoietin R/Fc Chimera (human, UniProt P19235 25-250).
T3 construct: also called EPO R; EPO R/Fc
T3 sequence (looked up): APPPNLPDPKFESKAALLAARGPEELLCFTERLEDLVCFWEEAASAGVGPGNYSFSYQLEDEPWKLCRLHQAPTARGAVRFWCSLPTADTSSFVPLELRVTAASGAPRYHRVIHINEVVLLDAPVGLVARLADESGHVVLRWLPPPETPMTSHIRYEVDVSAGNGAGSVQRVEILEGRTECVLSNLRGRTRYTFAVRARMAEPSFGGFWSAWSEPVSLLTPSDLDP
Described as above.

Assay [6] deals with T4, rHuman P-Cadherin/Fc Chimera (human, UniProt P22223 108-654).
T4 construct: Bought from R&D Systems (Cat#861-PC)
Described as above.

A further assay deals with rHuman ErbB2/Fc Chimera (human, UniProt P04626 23-652). The description is as above.
The target in the next assay is rHuman EGF R/Fc Chimera (human, UniProt P00533 25-645). The assay is described as above.
Assay [7] addresses T5, rHuman HGF R/c-MET/Fc Chimera (human, UniProt P08581 25-932).
T5 construct: also called HGF R/Fc
The description is as above.

The target in assay [8] is T6, Recombinant Human DLL4 (delta-like protein 4) (human, UniProt Q9NR61 27-529).
T6 construct: Bought from R&D Systems (Cat#1506-D4/CF); also called rHuman DLL4
The description is as above.

T5 sequence (P08581 25-932, change not shown): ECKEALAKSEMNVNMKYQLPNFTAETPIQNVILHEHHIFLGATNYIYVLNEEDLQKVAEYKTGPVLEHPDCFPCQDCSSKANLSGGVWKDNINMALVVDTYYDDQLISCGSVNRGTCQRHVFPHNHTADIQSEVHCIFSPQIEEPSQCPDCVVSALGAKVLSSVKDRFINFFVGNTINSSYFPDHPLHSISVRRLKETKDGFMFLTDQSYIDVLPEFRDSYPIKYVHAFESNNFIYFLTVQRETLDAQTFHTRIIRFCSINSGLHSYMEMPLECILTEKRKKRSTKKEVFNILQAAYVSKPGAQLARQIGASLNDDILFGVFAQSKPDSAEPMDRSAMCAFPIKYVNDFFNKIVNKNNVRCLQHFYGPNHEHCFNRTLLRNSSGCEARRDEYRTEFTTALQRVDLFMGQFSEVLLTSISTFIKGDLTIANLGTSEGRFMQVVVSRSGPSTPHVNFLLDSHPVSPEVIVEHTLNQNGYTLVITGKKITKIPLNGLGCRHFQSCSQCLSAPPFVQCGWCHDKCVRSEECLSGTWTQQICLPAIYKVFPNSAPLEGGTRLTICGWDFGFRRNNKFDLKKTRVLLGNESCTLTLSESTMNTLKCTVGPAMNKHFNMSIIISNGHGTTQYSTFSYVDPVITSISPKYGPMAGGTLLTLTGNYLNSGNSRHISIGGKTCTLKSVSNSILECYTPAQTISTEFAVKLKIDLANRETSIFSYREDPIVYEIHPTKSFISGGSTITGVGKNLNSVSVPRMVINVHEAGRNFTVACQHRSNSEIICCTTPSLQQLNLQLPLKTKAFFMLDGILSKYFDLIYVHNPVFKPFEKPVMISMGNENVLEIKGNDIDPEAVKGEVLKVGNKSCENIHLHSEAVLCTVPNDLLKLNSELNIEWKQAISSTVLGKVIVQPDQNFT

B1: Fab VH1-46_IGHD6-6*01_IGHJ1*01 S102A/S103P/S104F/H111F (APFF) & L6_IGKJ1*01 S92G (Fab, V domains shown)
VH: QVQLVQSGAEVKKPGASVKVSCKASGYTFTSYYMHWVRQAPGQGLEWMGIINPSGGSTSYAQKFQGRVTMTRDTSTSTVYMELSSLRSEDTAVYYCAREEYAPFSAEYFQFWGQGTLVTVSS
VL: EIVLTQSPATLSLSPGERATLSCRASQSVSSYLAWYQQKPGQAPRLLIYDASNRATGIPARFSGSGSGTDFTLTISSLEPEDFAVYYCQQRGNWPPWTFGQGTKVEIKR
notes: Fab with CH1 (His6 and Flag tags) and kappa CL from the expression vectors; also called APFF & S92G
Turning to B1, the Signal/Blank in assay [1] amounted to 281 ratio. Moreover, the “ECL signal” value in [2] worked out at 91400 ECL counts.

B2: Fab VH1-46_IGHD6-6*01_IGHJ1*01 S102A/S103P/S104F/H111F (APFF) & L6_IGKJ1*01 S92C (Fab, V domains shown)
VH: QVQLVQSGAEVKKPGASVKVSCKASGYTFTSYYMHWVRQAPGQGLEWMGIINPSGGSTSYAQKFQGRVTMTRDTSTSTVYMELSSLRSEDTAVYYCAREEYAPFSAEYFQFWGQGTLVTVSS
VL: EIVLTQSPATLSLSPGERATLSCRASQSVSSYLAWYQQKPGQAPRLLIYDASNRATGIPARFSGSGSGTDFTLTISSLEPEDFAVYYCQQRCNWPPWTFGQGTKVEIKR
notes: Tested as Fab made in E. coli: VH cloned into Plasmid A (CH1, His6 and Flag tags), kappa VL into Plasmid C (kappa CL); also called APFF / S92C
For B2, the ECL signal worked out at 642 in [3]; 642 in [4]; 554 with rHuman CD44/Fc Chimera; 742 in assay [5]; 805 in assay [6]; 526 with rHuman ErbB2/Fc Chimera. The ECL signal with rHuman EGF R/Fc Chimera was determined as 588; in assay [7] it was 589; in [8], 1230.

B3: Fab VH1-46_IGHD6-6*01_IGHJ1*01 S102A/S103P/S104F/H111F (APFF) & L6_IGKJ1*01 (Fab, V domains shown)
VH: QVQLVQSGAEVKKPGASVKVSCKASGYTFTSYYMHWVRQAPGQGLEWMGIINPSGGSTSYAQKFQGRVTMTRDTSTSTVYMELSSLRSEDTAVYYCAREEYAPFSAEYFQFWGQGTLVTVSS
VL: not shown
notes: Tested as Fab (CH1 with His6/Flag tags from Plasmid A; kappa CL from Plasmid C); also called APFF / parent; H:APFF & L:wt
As to B3, the ECL signal is 336 in [4]; 295 in assay [6]; 289 with rHuman ErbB2/Fc Chimera; 326 with rHuman EGF R/Fc Chimera; 185 in assay [7]; 189000 in assay [8].
